Test results reported in patent EP4242225A1.
Read-outs that look alike come from different tables or passages of the source.

What was measured:
Details in all cases: remark: other sources report otherwise
[1] = molecular target: T1, RBD-FH, monomeric RBD (332-534) with a FLAG peptide and an 8xHis-tag at the C-terminus (SARS-CoV-2), P0DTC2
[2] = molecular target: T1, RBD-FH, monomeric RBD (332-534) with a …; remark: listed apart in the source
[3] = molecular target: RBD-Fc, Wuhan strain (WA1) (SARS-CoV-2; human), P0DTC2

B1: Nb 1.10 (VHH)
VHH: QVQLVESGGGSVQAGGSLRLSCAASGYTYSTCRKGWYRQAPGKERELVASITADGATYYLDSVKGRLTISQDNAKNTVYLQMNSLKPEDTAVYYCAASVKDFTCTFNSWGQGTQVTVSS
Kd [1]: 3.96 nM | koff [1]: 0.00137 s⁻¹ | kon [1]: 345000 M⁻¹ s⁻¹

B2: hcAb 1.10 (Fc fusion)
heavy: QVQLVESGGGSVQAGGSLRLSCAASGYTYSTCRKGWYRQAPGKERELVASITADGATYYLDSVKGRLTISQDNAKNTVYLQMNSLKPEDTAVYYCAASVKDFTCTFNSWGQGTQVTVSS
Kd [2]: 0.35 nM | koff [2]: 0.000237 s⁻¹ | kon [2]: 679000 M⁻¹ s⁻¹ | % inhibition of RBD binding to hACE2 [3]: > 95%

B3: hcAb 2.15 (Fc fusion)
heavy: QVQLVESGGGSVQAGGSLKLSCAASGYASWARKCIGWFRQAPGQEREGVAAIFDFDGSTYYSDSVKGRFTISGDNAKNTVSLQMNSLLPKDTAVYYCTVAFGTCDNWYRGRGDYWGQGTQVTVSS
Kd [2]: 0.08 nM | koff [2]: 0.00012 s⁻¹ | kon [2]: 1.42e+06 M⁻¹ s⁻¹ | % inhibition of RBD binding to hACE2 [3]: > 95%

B4: Nb 2.15 (VHH)
VHH: QVQLVESGGGSVQAGGSLKLSCAASGYASWARKCIGWFRQAPGQEREGVAAIFDFDGSTYYSDSVKGRFTISGDNAKNTVSLQMNSLLPKDTAVYYCTVAFGTCDNWYRGRGDYWGQGTQVTVSS
Kd [1]: 0.39 nM | koff [1]: 0.000778 s⁻¹ | kon [1]: 2.02e+06 M⁻¹ s⁻¹
